# Assay results published in PMC5636753, “Structural basis for DAXX interaction with ATRX” (Protein & Cell, 2017).
# B1: DAXX-binding motif of ATRX, ATRX_(1,260–1,289) [not stated] / DAXX helical bundle (DHB) domain, DAXX_(55–144) [not stated] (parent complex)
# chain 1: DDDDDNDPENRIAKKMLLEEIKANLSSDED
# chain 2: GKKCYKLENEKLFEEFLELCKMQTADHPEVVPFLYNRQQRAHSLFLASAEFCNILSRVLSRARSRPAKLYVYINELCTVLKAHSAKKKLN
# B2: ATRX_(1,253–1,326) [not stated] / DAXX helical bundle (DHB) domain, DAXX_(55–144) [not stated] (parent complex)
# chain 1: SVPVTVDDDDDDNDPENRIAKKMLLEEIKANLSSDEDGSSDDEPEEGKKRTGKQNEENPGDEEAKNQVNSESDS
# chain 2: B1 chain 2
# Variants of: B1
# Assay: ITC
row,Variant,Kd
1,chain 1 DDDDDNAPANRIAKKMLLEEIKANLSSDED,1.75 µM
2,chain 1 AAAAANDPENRIAKKMLLEEIKANLSSDED,0.85 µM

# Variants of: B2
# Assay: ITC
row,Variant,Kd
1,chain 1 SVPVTVDDDDDDNDPENRIAKKMLLEERKANLSSDEDGSSDDEPEEGKKRTGKQNEENPGDEEAKNQVNSESDS,34.8 µM
2,chain 1 SVPVTVDDDDDDNDPENRIAKKMLLEEAKANLSSDEDGSSDDEPEEGKKRTGKQNEENPGDEEAKNQVNSESDS,0.4 µM
3,chain 1 SVPVTVDDDDDDNDPENRIAKKMLLEEQKANLSSDEDGSSDDEPEEGKKRTGKQNEENPGDEEAKNQVNSESDS,7.35 µM
4,chain 1 SVPVTVDDDDDDNDPENRIRKKMLLEEIKANLSSDEDGSSDDEPEEGKKRTGKQNEENPGDEEAKNQVNSESDS,1.04 µM
5,chain 1 SVPVTVDDDDDDNDPENRIAKKMALEEAKANLSSDEDGSSDDEPEEGKKRTGKQNEENPGDEEAKNQVNSESDS,12 µM
6,chain 1 SVPVTVDDDDDDNDPENRIAKKMLREEIKANLSSDEDGSSDDEPEEGKKRTGKQNEENPGDEEAKNQVNSESDS,0.97 µM
7,chain 1 SVPVTVDDDDDDNDPENRIAKKMRLEEIKANLSSDEDGSSDDEPEEGKKRTGKQNEENPGDEEAKNQVNSESDS,73.5 µM
8,chain 1 SVPVTVDDDDDDNDPENRIAKKMALEEIKANLSSDEDGSSDDEPEEGKKRTGKQNEENPGDEEAKNQVNSESDS,8.33 µM
9,chain 1 SVPVTVDDDDDDNDPENRIAKKMQLEEIKANLSSDEDGSSDDEPEEGKKRTGKQNEENPGDEEAKNQVNSESDS,43.3 µM
